The supplement of paper PMC6757056
± gives the standard deviation of the averaged measurements.

B1: library; a variant is named by its letters at N, in order (parent)
chain: GCUGUCACCGGAAUACCAGCAUCGUCUUGAUGCCCUUGGAAGUCCGGUCUGAUGAGUCCNNNNNGGACGAAACAGC

Columns and labels:
theophylline [1] = variants of: B1; assay: FACS-Seq fitted mean relative fluorescence mCherry/BFP without ligand (log10 relative fluorescence); higher = higher reporter protein expression; conditions: HEK293T, ligand present: no
Protocol: (§1)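 Hammerhead (sTRSV) ribozyme switch libraries with a ligand aptamer grafted on stem I and a randomized N4-6 loop II, cloned into the 3' UTR of mCherry and transiently transfected into HEK293T cells; RNA-Seq 72 h post transfection with ligand added 1 h before transfection; RNA read count / plasmid DNA read count normalized to the non-cleaving sTRSVctl (x100), log10; sequences with >100 DNA reads. FACS-Seq: lentiviral library sorted into 6 bins after 48 h ligand, log-normal fit mean of mCherry/BFP scaled to controls. Printed sequences are partial switch sequences.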

theophylline [2] = variants of: B1; assay: normalized RNA/DNA level with ligand (relative to sTRSVctl = 100) (log10 (% of sTRSVctl)); higher = less ribozyme self-cleavage, higher mRNA level; conditions: ligand concentration (+) RNA-Seq: 5 mM, HEK293T, reporter: mCherry (pCS4076), ligand present: yes
Protocol: as §1

theophylline [3] = variants of: B1; assay: normalized RNA/DNA level without ligand (relative to sTRSVctl = 100) (log10 (% of sTRSVctl)); higher = less ribozyme self-cleavage, higher mRNA level; conditions: HEK293T, reporter: mCherry (pCS4076), ligand present: no
Protocol: as §1

theophylline [4] = variants of: B1; assay: FACS-Seq fitted mean relative fluorescence mCherry/BFP with ligand (log10 relative fluorescence); ligand concentration (+) FACS-Seq: 1 mM; higher = higher reporter protein expression; conditions: HEK293T, ligand present: yes
Protocol: as §1

GCUGUCACCGGAAUACCAGCAUCGUCUUGAUGCCCUUGGAAGUCCGGUCUGAUGAGUCCACCUUGGACGAAACAGC
FACS-Seq fitted mean (log10) (theophylline [1]): 1.31 ± 0.14 | normalized RNA/DNA level with ligand (log10) (theophylline [2]): 2.04 ± 0.038 | normalized RNA/DNA level without ligand (log10) (theophylline [3]): 1.95 ± 0.047 | FACS-Seq fitted mean (log10) (theophylline [4]): 1.27 ± 0.14

GCUGUCACCGGAAUACCAGCAUCGUCUUGAUGCCCUUGGAAGUCCGGUCUGAUGAGUCCCCCUUGGACGAAACAGC
FACS-Seq fitted mean (log10) (theophylline [1]): 1.13 ± 0.16 | normalized RNA/DNA level with ligand (log10) (theophylline [2]): 1.99 ± 0.035 | normalized RNA/DNA level without ligand (log10) (theophylline [3]): 1.89 ± 0.049 | FACS-Seq fitted mean (log10) (theophylline [4]): 1.07 ± 0.036

GCUGUCACCGGAAUACCAGCAUCGUCUUGAUGCCCUUGGAAGUCCGGUCUGAUGAGUCCCCGAAGGACGAAACAGC
FACS-Seq fitted mean (log10) (theophylline [1]): -0.229 ± 0.1 | normalized RNA/DNA level with ligand (log10) (theophylline [2]): 1.93 ± 0.06 | normalized RNA/DNA level without ligand (log10) (theophylline [3]): 1.4 ± 0.089 | FACS-Seq fitted mean (log10) (theophylline [4]): 0.178 ± 0.11

GCUGUCACCGGAAUACCAGCAUCGUCUUGAUGCCCUUGGAAGUCCGGUCUGAUGAGUCCCCGACGGACGAAACAGC
FACS-Seq fitted mean (log10) (theophylline [1]): 0.958 ± 0.04 | normalized RNA/DNA level with ligand (log10) (theophylline [2]): 1.94 ± 0.04 | normalized RNA/DNA level without ligand (log10) (theophylline [3]): 1.91 ± 0.13 | FACS-Seq fitted mean (log10) (theophylline [4]): 1.06 ± 0.043

GCUGUCACCGGAAUACCAGCAUCGUCUUGAUGCCCUUGGAAGUCCGGUCUGAUGAGUCCUCCUUGGACGAAACAGC
FACS-Seq fitted mean (log10) (theophylline [1]): 0.983 ± 0.13 | normalized RNA/DNA level with ligand (log10) (theophylline [2]): 2.011 ± 0.0076 | normalized RNA/DNA level without ligand (log10) (theophylline [3]): 1.94 ± 0.053 | FACS-Seq fitted mean (log10) (theophylline [4]): 1.01 ± 0.082

GCUGUCACCGGAAUACCAGCAUCGUCUUGAUGCCCUUGGAAGUCCGGUCUGAUGAGUCCACGACGGACGAAACAGC
FACS-Seq fitted mean (log10) (theophylline [1]): 1.26 ± 0.14 | normalized RNA/DNA level with ligand (log10) (theophylline [2]): 1.981 ± 0.0072 | normalized RNA/DNA level without ligand (log10) (theophylline [3]): 1.834 ± 0.018 | FACS-Seq fitted mean (log10) (theophylline [4]): 1.19 ± 0.2

GCUGUCACCGGAAUACCAGCAUCGUCUUGAUGCCCUUGGAAGUCCGGUCUGAUGAGUCCACGAAGGACGAAACAGC
FACS-Seq fitted mean (log10) (theophylline [1]): 0.287 ± 0.046 | normalized RNA/DNA level with ligand (log10) (theophylline [2]): 1.97 ± 0.098 | normalized RNA/DNA level without ligand (log10) (theophylline [3]): 1.51 ± 0.045 | FACS-Seq fitted mean (log10) (theophylline [4]): 0.661 ± 0.025

GCUGUCACCGGAAUACCAGCAUCGUCUUGAUGCCCUUGGAAGUCCGGUCUGAUGAGUCCUCGAAGGACGAAACAGC
FACS-Seq fitted mean (log10) (theophylline [1]): 0.342 ± 0.019 | normalized RNA/DNA level with ligand (log10) (theophylline [2]): 1.97 ± 0.055 | normalized RNA/DNA level without ligand (log10) (theophylline [3]): 1.48 ± 0.066 | FACS-Seq fitted mean (log10) (theophylline [4]): 0.951 ± 0.086

GCUGUCACCGGAAUACCAGCAUCGUCUUGAUGCCCUUGGAAGUCCGGUCUGAUGAGUCCUCGACGGACGAAACAGC
FACS-Seq fitted mean (log10) (theophylline [1]): 0.96 ± 0.048 | normalized RNA/DNA level with ligand (log10) (theophylline [2]): 1.9 ± 0.12 | normalized RNA/DNA level without ligand (log10) (theophylline [3]): 1.78 ± 0.059 | FACS-Seq fitted mean (log10) (theophylline [4]): 0.965 ± 0.022
